Measurements from patent US20200181245A1 (University of California, published 2020).

Columns and labels:
[1] = molecular target: T1, tau352 (human tau isoform 352, 15N-labelled, His tag removed by TEV cleavage) (human, UniProt P10636-2 2-352); assay: 2D 1H-15N HSQC NMR, about 1:1 molar ratio
T1 construct: mature; Uniformly 15N-labelled for NMR
Description: The interaction between scFv and tau352 was further studied by NMR spectroscopy. For this purpose, tau352 and 3RT antibody were recombinantly expressed in E. coli and HEK293 cells, respectively. 2D ¹H-¹⁵N heteronuclear single quantum coherence (HSQC) spectra were recorded on tau352 in absence and presence of 3RT antibody (FIG. 10A). The HSQC of tau352 has a narrow chemical shift dispersion indicative of an intrinsically disordered protein (FIG. 10A).
NMR experiments were recorded on a Bruker Avance 800 MHz spectrometer with 5% D₂O as lock solvent at 25° C. The 2D ¹H-¹⁵N HSQC experiments were recorded on a […] ¹⁵N labeled tau352 sample, for the interaction measurement an approximate 1:1 molar ratio between tau352 and scFv was used. For the 2D ¹⁵N HSQC, 512 data points were recorded in the indirect dimension with 128 scans per point for free tau352 and scFv-bound tau352.

[2] = molecular target: T2, His and avidin-tagged 3RTau (352), recombinant full length 3R Tau protein (UniProt P10636-2 2-352, limits assumed); assay: ELISA and immunoblot
T2 construct: mature; Used for phage panning, ELISA (immobilized) and immunoblot; The His and avidin tags are not described further; also called 3RT protein; 3-repeat Tau
T2 sequence (P10636 other isoform, or with tags, fused parts or gaps limits assumed): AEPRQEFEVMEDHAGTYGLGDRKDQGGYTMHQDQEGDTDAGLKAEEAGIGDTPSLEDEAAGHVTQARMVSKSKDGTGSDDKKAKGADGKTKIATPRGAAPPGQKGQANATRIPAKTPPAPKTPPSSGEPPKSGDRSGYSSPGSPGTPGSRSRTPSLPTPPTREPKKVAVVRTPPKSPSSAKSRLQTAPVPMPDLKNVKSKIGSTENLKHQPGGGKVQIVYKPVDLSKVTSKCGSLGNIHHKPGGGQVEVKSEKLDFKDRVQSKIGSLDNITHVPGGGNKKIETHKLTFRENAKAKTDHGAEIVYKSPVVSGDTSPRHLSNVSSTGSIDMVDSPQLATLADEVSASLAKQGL

T1 sequence (P10636 other isoform, or with tags, fused parts or gaps): as the sequence (P10636 other isoform, or with tags, fused parts or gaps limits assumed) above

B1: 3RT single chain antibody (Clone 5F10) (scFv)
scFv: MEQVNLRESGAEVKKPGASVKVSCKVSGYTFTGYYMHWVRQAPGQGLEWMGWINSNSGATKYAQKFQGRVTMTRDTSITTAYMELSSLRSDDTAVYYCARGARDGYGFDYWGQGTLVTVLAGGGGSGGGGSGGGGSGAPSYVLTQPPSASGTPGQRVTISCSGGSSNIGSNAVSWYQQLPGTAPKLLIFTNDQRPSGVPDRFSGSKSGTSAPLAISGLQSEDESDYYCATWDDSLNGWVFGGGTKVTVRS
notes: Human scFv from a phage display library; It was expressed from mammalian scFV cassettes; also called 3RT scFV; 3RTau scFV
B1: binds [1]; binds [2].
